According to paper PMC9122904, “Insights into the client protein release mechanism of the ATP-independent chaperone Spy” (Nature Communications, 2022):

B6: Spy_(29-138) (domain or fragment, UniProt P77754 52-161, looked up)
chain: FKDLNLTDAQKQQIREIMKGQRDQMKRPPLEERRAMHDIIASDTFDKVKAEAQIAKMEEQRKANMLAHMETQNKIYNILTPEQKKQFNANFEKRLTERPAAKGKMPATAE
notes: source: E. coli BL21 (DE3), purified (Ni-NTA, cation exchange, SEC); not shown: His6, N-terminal, cleaved; SUMO, N-terminal, cleaved
B7: carboxymethylated α-lactalbumin (natural protein, bovine, UniProt P00711 20-142, looked up)
chain: EQLTKCEVFRELKDLKGYGGVSLPEWVCTTFHTSGYDTQAIVQNNDSTEYGLFQINNKIWCKDDQNPHSSNICNISCDKFLDDDLTDDIMCVKKILDKVGINYWLAHKALCSEKLDQWLCEKL
modifications: carboxymethylated (residues not stated); biotin (EZ-link NHS-biotin, 1:1 molar ratio of biotin to protein)
notes: α-lactalbumin, carboxymethylated and thereby unfolded; also called unfolded α-LA

How the values were obtained:
Conditions in all cases: both partners purified
Spy_(29-124) [1] = target: T1, Spy_(29-124) (Escherichia coli K-12 substr. MG1655, UniProt P77754 52-147); assay: NMR titration; 0.1 mM [15N]-Spy29-124 titrated with unlabeled peptide at Spy29-124:peptide 1:2 to 1:40; 1H-15N HSQC, 40 mM HEPES-NaOH, 150 mM NaCl, pH 7.5, 25 °C; global one-site fit of the CSPs of M64, H65, D66, I67, A69, K113, N116, A117, K121; saturation not reached, Kd only an estimate
T1 construct: [15N]-labeled in the NMR titrations; also called termini-free Spy; source: E. coli BL21 (DE3), purified (Ni-NTA, cation exchange, SEC); not shown: His6, N-terminal, cleaved; SUMO, N-terminal, cleaved
T1 sequence (looked up): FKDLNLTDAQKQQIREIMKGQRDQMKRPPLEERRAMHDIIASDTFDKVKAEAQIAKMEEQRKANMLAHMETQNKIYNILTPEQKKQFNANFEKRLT

Spy_(29-124) [2] = target: T2, Spy_(29-124) (UniProt P77754 52-147); assay: NMR titration; 0.1 mM [15N]-Spy_(29-124) with unlabeled peptide at molar ratios 1:2 to 1:40; 2D 1H-15N HSQC; 40 mM HEPES-NaOH, 150 mM NaCl, pH 7.5, 25 °C; one-site binding model
T2 construct: structured region of Spy, both disordered termini deleted; residue n is n+23 in P77754; Isotope-labelled ([15N], [13C,15N] or [2H,13C,15N]) in the NMR experiments; source: E. coli BL21 (DE3), purified (Ni-NTA, cation exchange, SEC); not shown: His6-SUMO, N-terminal, cleaved
T2 sequence (looked up): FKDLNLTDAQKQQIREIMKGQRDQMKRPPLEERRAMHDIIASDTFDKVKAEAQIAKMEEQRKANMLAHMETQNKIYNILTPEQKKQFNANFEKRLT

Spy wild type = target: T3, Spy wild type (Escherichia coli K-12 substr. MG1655, UniProt P77754 24-161); assay: BLI; Octet RED96; biotinylated client loaded on streptavidin sensors, dipped into Spy or Spy variants (0.25, 0.5, 1, 1.5, 2 uM) in 40 mM HEPES, 150 mM NaCl, pH 7.5; kon from kobs against [Spy], Kd = koff/kon
T3 construct: also called WT; source: E. coli BL21 (DE3), purified (Ni-NTA, cation exchange, SEC); not shown: His6, N-terminal, cleaved; SUMO, N-terminal, cleaved
T3 sequence (looked up): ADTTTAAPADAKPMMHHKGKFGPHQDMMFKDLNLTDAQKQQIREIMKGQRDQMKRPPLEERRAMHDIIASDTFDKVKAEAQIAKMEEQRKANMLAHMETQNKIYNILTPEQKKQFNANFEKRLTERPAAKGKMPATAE

Spy (GGGS)2 = target: T4, Spy (GGGS)2 (Escherichia coli K-12 substr. MG1655, UniProt P77754 24-161, (GGGS)2 linker inserted between D26 and M27); assay: as above
T4 construct: also called Spy variant with a (GGGS)2 linker inserted between D26 and M27; source: E. coli BL21 (DE3), purified (Ni-NTA, cation exchange, SEC); not shown: His6, N-terminal, cleaved; SUMO, N-terminal, cleaved
T4 sequence (looked up): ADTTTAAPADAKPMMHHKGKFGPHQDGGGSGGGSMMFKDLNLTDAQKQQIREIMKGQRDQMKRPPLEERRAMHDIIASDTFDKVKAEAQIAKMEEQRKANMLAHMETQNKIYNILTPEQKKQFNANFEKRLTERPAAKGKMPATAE

Spy_(29-138) [3] = target: B6; assay: BLI; Octet RED96; client biotinylated and loaded on streptavidin sensors; Spy or Spy variant in solution at 0.25, 0.5, 1, 1.5 and 2 μM; 40 mM HEPES, 150 mM NaCl, pH 7.5; Kd calculated as koff/kon
[4] = target: T5, Spy wild type (Spy_(1-138)) (UniProt P77754 24-161); assay: as above
T5 construct: Spy, ATP-independent periplasmic chaperone; also called WT; wt; source: E. coli BL21 (DE3), purified (Ni-NTA, cation exchange, SEC); not shown: His6, N-terminal, cleaved; SUMO, N-terminal, cleaved
T5 sequence (looked up): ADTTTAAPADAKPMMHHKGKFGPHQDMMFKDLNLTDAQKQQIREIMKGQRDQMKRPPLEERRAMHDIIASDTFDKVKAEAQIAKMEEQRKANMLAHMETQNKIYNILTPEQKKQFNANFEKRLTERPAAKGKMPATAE

Spy_(29-138) [5] = target: B6; assay: as above; remark: listed apart in the source
[6] = target: T5, Spy wild type (Spy_(1-138)); assay: as above; remark: listed apart in the source
Spy_(29-138) [7] = target: B6; assay: as above; remark: listed apart in the source
[8] = target: T5, Spy wild type (Spy_(1-138)); assay: as above; remark: listed apart in the source
[9] = target: B7; assay: as above
[10] = target: B7; assay: as above; remark: listed apart in the source
[11] = target: B7; assay: as above; remark: listed apart in the source
Im7 H40W L53A I54A = target: T6, Im7 H40W L53A I54A (UniProt Q03708 1-87, H40W | L53A | I54A, biotin (EZ-link NHS-biotin, 1:1 molar ratio of biotin to protein)); assay: BLI; Octet RED96; biotinylated client loaded on streptavidin sensors; Spy or Spy variants at 0.25, 0.5, 1, 1.5 and 2 μM in 40 mM HEPES, 150 mM NaCl, pH 7.5; Kd = koff/kon
T6 construct: Im7 (colicin E7 immunity protein), partially folded mutant; also called Im7AAW; source: purified by a similar procedure to Spy
T6 sequence: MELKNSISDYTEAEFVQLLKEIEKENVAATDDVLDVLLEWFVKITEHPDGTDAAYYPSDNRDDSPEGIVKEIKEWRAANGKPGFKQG

B1: Nt-pep (peptide)
peptide: ADTTTAAPADAKPMMHHKGKFGPHQDMM
notes: Unlabeled peptide; also called Nt-pep WT; peptide corresponding to Spy residues 1-28
B1 gave a Kd (Spy_(29-124) [1]) of 4.74 ± 0.16 mM.

Work on ADTTTAAPADAKPMMHHKGKFGPHQKMM (peptide, UniProt P77754 24-51, looked up, Spy of E. coli, residues 1-28 with D26K) [Nt-pep D26K] yielded a Kd (Spy_(29-124) [1]) of 6.33 ± 0.25 mM.

ADTTTAAPADAKPMMHHKGKFGPHQRMM (peptide, UniProt P77754 24-51, looked up, Spy of E. coli, residues 1-28 with D26R) [Nt-pep D26R] gave a Kd (Spy_(29-124) [1]) of 7.04 ± 0.28 mM.

B2: Nt-pep (peptide, UniProt P77754 24-51, looked up)
peptide: ADTTTAAPADAKPMMHHKGKFGPHQDMM
notes: disordered N terminus of Spy as a free peptide; residue n is n+23 in P77754; also called peptide corresponding to Spy residues 1-28
Work on B2 yielded a Kd (Spy_(29-124) [2]) of 4.7 mM.

B3: Im7 H40W L53A I54A (natural protein)
chain: MELKNSISDYTEAEFVQLLKEIEKENVAATDDVLDVLLEWFVKITEHPDGTDAAYYPSDNRDDSPEGIVKEIKEWRAANGKPGFKQG
modifications: biotin (EZ-link NHS-biotin, 1:1 molar ratio of biotin to protein)
notes: Im7, colicin E7 immunity protein (gene ceiE7), partially folded mutant H40W L53A I54A; The methods say only that Im7 variants were purified by a similar procedure to Spy (His6-SUMO tag removed); also called Im7AAW; biotin-labeled Im7AAW; source: purified by a similar procedure to Spy
B3 gave a Kd (Spy wild type) of 640 nM, a koff (Spy wild type) of 0.178 s⁻¹ and a kon (Spy wild type) of 276000 M⁻¹ s⁻¹. The Kd (Spy (GGGS)2) was 530 nM, the koff (Spy (GGGS)2) was 0.123 s⁻¹ and the kon (Spy (GGGS)2) was 234000 M⁻¹ s⁻¹.

B4: Im7 L18A L19A L37A (natural protein)
chain: MELKNSISDYTEAEFVQAAKEIEKENVAATDDVLDVALEHFVKITEHPDGTDLIYYPSDNRDDSPEGIVKEIKEWRAANGKPGFKQG
modifications: biotin (EZ-link NHS-biotin, 1:1 molar ratio of biotin to protein)
notes: Im7 (colicin E7 immunity protein) with L18A L19A L37A; also called Im7A3; unfolded client; source: purified by a similar procedure to Spy
In the case of B4, the Kd (Spy_(29-138) [3]) is reported as 340 nM, the Kd [4] is reported as 670 nM and the koff (Spy_(29-138) [5]) is reported as 0.087 s⁻¹. It also gave a koff [6] of 0.199 s⁻¹, a kon (Spy_(29-138) [7]) of 254000 M⁻¹ s⁻¹ and a kon [8] of 299000 M⁻¹ s⁻¹.

B5: Im7 wild type (natural protein)
chain: MELKNSISDYTEAEFVQLLKEIEKENVAATDDVLDVLLEHFVKITEHPDGTDLIYYPSDNRDDSPEGIVKEIKEWRAANGKPGFKQG
modifications: biotin (EZ-link NHS-biotin, 1:1 molar ratio of biotin to protein)
notes: Im7 (colicin E7 immunity protein), wild type; also called Im7 WT; Im7WT; source: purified by a similar procedure to Spy
Work on B5 yielded a Kd (Spy_(29-138) [3]) of 270 nM, a Kd [4] of 470 nM and a koff (Spy_(29-138) [5]) of 0.048 s⁻¹. It also gave a koff [6] of 0.114 s⁻¹, a kon (Spy_(29-138) [7]) of 178000 M⁻¹ s⁻¹ and a kon [8] of 244000 M⁻¹ s⁻¹.

For B6, the Kd [9] was 400 nM, the koff [10] was 0.0584 s⁻¹ and the kon [11] was 145000 M⁻¹ s⁻¹.

B7 was tested, and the Kd [4] was 3360 nM, the koff [6] was 0.726 s⁻¹ and the kon [8] was 216000 M⁻¹ s⁻¹.

B8: Spy_(21-130) (domain or fragment, UniProt P77754 44-153, looked up)
chain: FGPHQDMMFKDLNLTDAQKQQIREIMKGQRDQMKRPPLEERRAMHDIIASDTFDKVKAEAQIAKMEEQRKANMLAHMETQNKIYNILTPEQKKQFNANFEKRLTERPAAK
notes: previously characterized truncation mutant of Spy; residue n is n+23 in P77754; source: E. coli BL21 (DE3), purified (Ni-NTA, cation exchange, SEC); not shown: His6-SUMO, N-terminal, cleaved
B8 was tested, and the “fold increase in koff (against Spy wild type)” value (Im7 H40W L53A I54A) was about 2 fold.
